# From article PMC4363659
# Tests used:
# Assay in all cases: fluorescence polarization
# Settings in all cases: FP: 50 mM Tris/HCl pH 8.0, 150 mM NaCl, 1 mM TCEP, 0.1 mg/ml BSA, 0.5 nM DNA, RT 10 min, EMSA: 10 mM HEPES pH 7.5, 100 mM KCl, 5 mM MgSO4, 5% glycerol
# [1] = system: His6::AvrBs3 (Xanthomonas campestris pv. vesicatoria)
# [2] = system: His6::AvrBs3ΔN152 (Xanthomonas campestris pv. vesicatoria)
# [3] = system: His6::AvrBs3ΔN152-C16 (Xanthomonas campestris pv. vesicatoria)
substance,measurement,setting,value
E1U20 36-bp UPA20 promoter fragment (fluorescein),Kd,[1],23.2 nM
same,Kd,[2],99.2 nM
same,Kd,[3],282 nM
